Reference: patent US20030175885A1 (REGEN BIOTECH, published 2003)

B1: synthetic peptide NKDIL (peptide)
peptide: NKDIL
notes: Made by solid phase synthesis; also called 2nd fas-1 domain-derived synthetic peptide; NKDIL (a.a. 354-358)
B2: synthetic peptide EPDIM (peptide)
peptide: EPDIM
notes: Made by solid phase synthesis; also called 4th fas-1 domain-derived synthetic peptide; EPDIM (a.a. 615-619)

What was measured:
α3β1 integrin [1] = biological target: T1, α3β1 integrin (UniProt P26006 33-1051; P05556 21-798); test: HCE cell adhesion to coated peptide (100 µM) with function-blocking anti-integrin mAbs
T1 construct: whole, on cells; Never used as a purified protein; It is always the receptor on HCE cells in adhesion assays; also called integrin α3β1; functional receptor for βig-h3
T1 sequence (P26006 33-1051, chain 1 of 2): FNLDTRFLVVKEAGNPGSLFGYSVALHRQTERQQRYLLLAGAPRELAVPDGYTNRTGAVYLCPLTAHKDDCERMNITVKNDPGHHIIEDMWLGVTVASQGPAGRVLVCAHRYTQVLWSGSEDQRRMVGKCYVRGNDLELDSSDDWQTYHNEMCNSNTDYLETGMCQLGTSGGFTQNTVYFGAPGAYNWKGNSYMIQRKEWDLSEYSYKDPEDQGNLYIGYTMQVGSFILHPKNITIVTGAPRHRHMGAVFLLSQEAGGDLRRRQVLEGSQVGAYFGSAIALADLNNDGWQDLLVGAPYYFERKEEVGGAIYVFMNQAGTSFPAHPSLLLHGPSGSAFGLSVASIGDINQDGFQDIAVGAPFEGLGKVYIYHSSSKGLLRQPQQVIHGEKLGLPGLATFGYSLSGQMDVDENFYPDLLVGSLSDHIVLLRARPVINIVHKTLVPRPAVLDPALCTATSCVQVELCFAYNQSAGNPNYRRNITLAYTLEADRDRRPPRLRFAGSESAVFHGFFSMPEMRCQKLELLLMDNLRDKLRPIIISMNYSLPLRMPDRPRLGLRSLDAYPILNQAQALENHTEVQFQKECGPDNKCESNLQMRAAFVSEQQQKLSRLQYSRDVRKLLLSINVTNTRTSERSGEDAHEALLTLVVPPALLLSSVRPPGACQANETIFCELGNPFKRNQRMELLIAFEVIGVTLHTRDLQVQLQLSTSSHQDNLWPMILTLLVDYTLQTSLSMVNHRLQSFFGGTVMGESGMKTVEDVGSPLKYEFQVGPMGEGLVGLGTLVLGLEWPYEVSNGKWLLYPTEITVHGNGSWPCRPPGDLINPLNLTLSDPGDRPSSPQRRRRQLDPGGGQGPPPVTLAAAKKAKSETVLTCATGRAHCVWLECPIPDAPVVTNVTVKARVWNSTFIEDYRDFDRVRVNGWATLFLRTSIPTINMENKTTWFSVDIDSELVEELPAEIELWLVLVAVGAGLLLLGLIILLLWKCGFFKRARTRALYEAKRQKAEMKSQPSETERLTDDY
T1 sequence (P05556 21-798, chain 2 of 2): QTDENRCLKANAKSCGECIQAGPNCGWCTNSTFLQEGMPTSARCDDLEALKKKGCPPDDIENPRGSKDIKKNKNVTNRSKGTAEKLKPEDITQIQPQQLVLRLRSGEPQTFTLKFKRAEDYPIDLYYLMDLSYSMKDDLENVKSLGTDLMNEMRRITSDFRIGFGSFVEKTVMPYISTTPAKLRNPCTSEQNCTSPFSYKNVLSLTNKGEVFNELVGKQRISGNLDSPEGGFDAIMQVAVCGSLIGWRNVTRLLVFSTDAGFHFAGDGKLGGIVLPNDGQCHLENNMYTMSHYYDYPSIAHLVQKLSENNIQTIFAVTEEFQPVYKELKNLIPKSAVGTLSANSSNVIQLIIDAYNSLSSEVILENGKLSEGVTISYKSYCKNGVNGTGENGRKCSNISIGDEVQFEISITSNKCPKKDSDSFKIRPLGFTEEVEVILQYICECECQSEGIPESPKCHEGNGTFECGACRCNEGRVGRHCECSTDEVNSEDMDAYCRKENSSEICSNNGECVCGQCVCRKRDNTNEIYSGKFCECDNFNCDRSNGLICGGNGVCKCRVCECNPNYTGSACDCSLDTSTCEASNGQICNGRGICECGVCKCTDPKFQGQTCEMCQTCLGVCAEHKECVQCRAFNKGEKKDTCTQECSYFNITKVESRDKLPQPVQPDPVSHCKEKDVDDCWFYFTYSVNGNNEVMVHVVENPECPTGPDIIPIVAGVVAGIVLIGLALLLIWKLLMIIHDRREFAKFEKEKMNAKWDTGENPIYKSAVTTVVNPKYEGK
Experimental: (§1) Function-blocking experiments using monoclonal antibodies against various integrin subunits were carried out to examine whether α3β1 integrin, known as a surface receptor of βig-h3, would be involved in the cell adhesion mediated by the synthetic peptides EPDIM and NKDIL. HCE was preincubated at 37° C. for 30 min in the presence of each of the monoclonal antibodies (5 μg/ml) against different types of integrins. The preincubated cells were transferred onto plates precoated with 100 μM EPDIM or 100 μM NKDIL and then incubated further at 37° C. for 1 hour, followed by the quantitative analysis with hexosaminidase substrate as in Example 1-2.

α3β1 integrin [2] = biological target: T1, α3β1 integrin; test: HCE cell adhesion and adhesion inhibition assays
Experimental: as §1

Binder	binding result (α3β1 integrin [1])	binding result (α3β1 integrin [2])
B1	binds	
B2		binds
